Experimental data as given in patent US20130108658A1 (published 2013).

B1: AAV2 RGD4C 453 A2 (other)
chain: MAADGYLPDWLEDTLSEGIRQWWKLKPGPPPPKPAERHKDDSRGLVLPGYKYLGPFNGLDKGEPVNEADAAALEHDKAYDRQLDSGDNPYLKYNHADAEFQERLKEDTSFGGNLGRAVFQAKKRVLEPLGLVEEPVKTAPGKKRPVEHSPVEPDSSSGTGKAGQQPARKRLNFGQTGDADSVPDPQPLGQPPAAPSGLGTNTMATGSGAPMADNNEGADGVGNSSGNWHCDSTWMGDRVITTSTRTWALPTYNNHLYKQISSQSGASNDNHYFGYSTPWGYFDFNRFHCHFSPRDWQRLINNNWGFRPKRLNFKLFNIQVKEVTQNDGTTTIANNLTSTVQVFTDSEYQLPYVLGSAHQGCLPPFPADVFMVPQYGYLTLNNGSQAVGRSSFYCLEYFPSQMLRTGNNFTFSYTFEDVPFHSSYAHSQSLDRLMNPLIDQYLYYLSRTNTPSGACDCRGDCFCATTTQSRLQFSQAGASDIRDQSRNWLPGPCYRQQRVSKTSADNNNSEYSWTGATKYHLNGRDSLVNPGPAMASHKDDEEKFFPQSGVLIFGKQGSEKTNVDIEKVMITDEEEIRTTNPVATEQYGSVSTNLQAGNAQAATADVNTQGVLPGMVWQDRDVYLQGPIWAKIPHTDGHFHPSPLMGGFGLKHPPPQILIKNTPVPANPSTTFSAAKFASFITQYSTGQVSVEIEWELQKENSKRWNPEIQYTSNYNKSVNVDFTVDTNGVYSEPRPIGTRYLTRNL
notes: Capsid particle of VP-1, VP-2 and VP-3; substitution positions count on wild-type AAV2 VP-1

Experiments:
[1] = target: AAV-amyloid-453-587 (AAV2; human) (UniProt P03135)
[2] = target: T1, purified αvβ3 integrin (CHEMICON) (UniProt P06756 31-1048; P05106 27-788); experiment: A20-capture ELISA, purified αvβ3 integrin 100 ng/well, normalised to A20-biot
T1 construct: also called soluble αvβ3; soluble receptor αvβ3
T1 sequence (P06756 31-1048, chain 1 of 2): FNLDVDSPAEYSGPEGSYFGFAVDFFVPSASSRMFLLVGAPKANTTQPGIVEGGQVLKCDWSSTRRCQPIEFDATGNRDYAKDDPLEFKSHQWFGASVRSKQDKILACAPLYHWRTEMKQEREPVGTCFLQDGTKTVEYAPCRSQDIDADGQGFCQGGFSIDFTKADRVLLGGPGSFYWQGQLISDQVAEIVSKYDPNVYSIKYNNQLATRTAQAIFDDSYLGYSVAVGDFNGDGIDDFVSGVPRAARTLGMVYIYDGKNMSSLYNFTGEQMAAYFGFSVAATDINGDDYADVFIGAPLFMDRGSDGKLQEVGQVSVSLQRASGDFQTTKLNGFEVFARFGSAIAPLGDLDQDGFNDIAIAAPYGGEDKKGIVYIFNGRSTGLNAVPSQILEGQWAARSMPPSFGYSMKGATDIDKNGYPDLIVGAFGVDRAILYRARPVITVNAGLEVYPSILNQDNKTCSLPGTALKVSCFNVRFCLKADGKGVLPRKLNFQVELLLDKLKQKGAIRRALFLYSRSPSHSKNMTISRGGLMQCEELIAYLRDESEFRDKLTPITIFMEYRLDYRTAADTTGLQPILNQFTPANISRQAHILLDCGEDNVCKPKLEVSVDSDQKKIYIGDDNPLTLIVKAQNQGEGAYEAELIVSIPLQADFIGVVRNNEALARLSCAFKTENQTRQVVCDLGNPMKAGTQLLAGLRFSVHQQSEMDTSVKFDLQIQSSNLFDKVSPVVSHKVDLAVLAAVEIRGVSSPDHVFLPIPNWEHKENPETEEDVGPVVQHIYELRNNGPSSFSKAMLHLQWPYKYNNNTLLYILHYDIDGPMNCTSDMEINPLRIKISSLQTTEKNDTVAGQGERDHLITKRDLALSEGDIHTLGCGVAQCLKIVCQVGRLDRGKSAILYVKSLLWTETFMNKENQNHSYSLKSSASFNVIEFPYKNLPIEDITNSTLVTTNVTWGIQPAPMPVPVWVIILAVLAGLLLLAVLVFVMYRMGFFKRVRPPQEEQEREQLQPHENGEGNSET
T1 sequence (P05106 27-788, chain 2 of 2): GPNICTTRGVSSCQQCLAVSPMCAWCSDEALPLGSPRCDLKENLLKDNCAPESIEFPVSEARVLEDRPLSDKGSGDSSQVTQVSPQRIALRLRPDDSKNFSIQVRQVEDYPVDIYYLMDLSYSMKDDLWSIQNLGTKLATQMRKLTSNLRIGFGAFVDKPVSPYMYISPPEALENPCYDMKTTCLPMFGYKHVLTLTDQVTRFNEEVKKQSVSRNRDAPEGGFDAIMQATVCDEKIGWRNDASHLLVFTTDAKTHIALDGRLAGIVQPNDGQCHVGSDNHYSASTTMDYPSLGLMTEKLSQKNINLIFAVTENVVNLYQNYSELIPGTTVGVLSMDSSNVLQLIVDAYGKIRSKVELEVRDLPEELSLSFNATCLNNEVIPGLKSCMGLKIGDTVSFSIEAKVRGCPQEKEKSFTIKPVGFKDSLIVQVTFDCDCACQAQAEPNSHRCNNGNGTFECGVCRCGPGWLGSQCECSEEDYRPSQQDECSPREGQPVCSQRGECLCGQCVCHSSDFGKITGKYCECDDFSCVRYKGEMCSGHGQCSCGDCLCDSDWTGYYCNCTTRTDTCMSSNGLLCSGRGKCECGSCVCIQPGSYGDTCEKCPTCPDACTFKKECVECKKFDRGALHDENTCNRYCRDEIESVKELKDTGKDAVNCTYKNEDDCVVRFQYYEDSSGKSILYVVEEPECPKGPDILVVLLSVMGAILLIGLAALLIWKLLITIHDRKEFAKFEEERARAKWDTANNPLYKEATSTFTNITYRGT

Molecule	fold higher affinity against the I-587-insertion mutant [1] [fold]	fold increase of binding activity against RGD4C 453 [2] [fold]
anti-β-amyloid mAb 6E10 (CHEMICON) (antibody)	2	–
B1	–	~50
